Source: PMC3201852 (Nucleic Acids Research, 2011)

Columns and labels:
Test in all cases: pull-down
[1] = target: GST-fused human eIF2β (GST-eIF2β) (human) (UniProt P20042)
[2] = target: GST-5MP1-7A (7 alanine substitutions in AA-box 2) (human) (UniProt Q9Y6E2)
[3] = target: human eIF2 purified from HeLa cells (human, UniProt P05198 1-315; P20042 1-333; P41091 1-472)
human eIF2 purified from HeLa cells (human, UniProt P05198 1-315; P20042 1-333; P41091 1-472), sequence (P05198 whole entry, chain 1 of 3): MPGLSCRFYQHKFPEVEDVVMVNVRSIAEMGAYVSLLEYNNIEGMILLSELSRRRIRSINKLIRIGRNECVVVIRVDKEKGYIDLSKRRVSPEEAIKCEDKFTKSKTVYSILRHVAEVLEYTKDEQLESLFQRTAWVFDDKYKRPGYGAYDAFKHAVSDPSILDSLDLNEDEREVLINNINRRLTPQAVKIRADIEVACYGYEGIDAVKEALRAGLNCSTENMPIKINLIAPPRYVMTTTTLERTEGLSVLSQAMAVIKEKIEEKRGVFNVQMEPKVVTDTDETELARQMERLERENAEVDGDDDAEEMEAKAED
human eIF2 purified from HeLa cells (human, UniProt P05198 1-315; P20042 1-333; P41091 1-472), sequence (P20042 whole entry, chain 2 of 3): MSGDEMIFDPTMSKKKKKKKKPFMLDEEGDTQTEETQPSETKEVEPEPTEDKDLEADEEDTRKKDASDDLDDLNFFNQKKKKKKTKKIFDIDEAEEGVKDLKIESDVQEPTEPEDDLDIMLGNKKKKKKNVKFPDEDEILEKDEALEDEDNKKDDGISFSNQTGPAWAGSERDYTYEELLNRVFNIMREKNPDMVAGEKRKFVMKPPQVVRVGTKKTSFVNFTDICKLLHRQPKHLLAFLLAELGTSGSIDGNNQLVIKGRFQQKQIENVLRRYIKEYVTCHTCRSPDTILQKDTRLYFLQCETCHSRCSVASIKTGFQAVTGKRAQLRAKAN
human eIF2 purified from HeLa cells (human, UniProt P05198 1-315; P20042 1-333; P41091 1-472), sequence (P41091 whole entry, chain 3 of 3): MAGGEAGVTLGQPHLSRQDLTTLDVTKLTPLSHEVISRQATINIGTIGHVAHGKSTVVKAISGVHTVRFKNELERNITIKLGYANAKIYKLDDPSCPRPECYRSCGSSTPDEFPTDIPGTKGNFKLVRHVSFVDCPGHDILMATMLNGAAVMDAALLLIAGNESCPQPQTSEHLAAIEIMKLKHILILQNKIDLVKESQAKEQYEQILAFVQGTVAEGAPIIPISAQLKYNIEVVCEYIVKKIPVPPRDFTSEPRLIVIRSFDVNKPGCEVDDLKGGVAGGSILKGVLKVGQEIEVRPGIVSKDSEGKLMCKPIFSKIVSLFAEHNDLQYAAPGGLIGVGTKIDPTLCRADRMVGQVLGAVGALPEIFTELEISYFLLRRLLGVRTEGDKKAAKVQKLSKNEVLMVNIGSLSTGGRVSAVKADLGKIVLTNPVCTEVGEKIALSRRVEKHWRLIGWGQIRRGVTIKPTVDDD

GST-fused human eIF2β (GST-eIF2β) (human), sequence (P20042 whole entry, the tested form may be a part): as the sequence (P20042 whole entry, chain 2 of 3) above

“FL-5MP1-7A (FLAG-tagged 5MP1 with the AA-box 2 mutation 7A) (from UniProt Q9Y6E2 1-419) (natural protein)” gave a fold reduction of binding against wild-type FL-5MP1 [1] of 2 fold.

In the case of “human eIF2 purified from HeLa cells (from UniProt P05198 1-315; P20042 1-333; P41091 1-472) (complex)”, the fold reduction of binding against wild-type GST-5MP1 [2] is reported as over 2 fold.

B1: GST-5MP1 fusion protein (human eIF5-mimic protein 1) (natural protein, UniProt Q9Y6E2 1-419, looked up)
chain: MNKHQKPVLTGQRFKTRKRDEKEKFEPTVFRDTLVQGLNEAGDDLEAVAKFLDSTGSRLDYRRYADTLFDILVAGSMLAPGGTRIDDGDKTKMTNHCVFSANEDHETIRNYAQVFNKLIRRYKYLEKAFEDEMKKLLLFLKAFSETEQTKLAMLSGILLGNGTLPATILTSLFTDSLVKEGIAASFAVKLFKAWMAEKDANSVTSSLRKANLDKRLLELFPVNRQSVDHFAKYFTDAGLKELSDFLRVQQSLGTRKELQKELQERLSQECPIKEVVLYVKEEMKRNDLPETAVIGLLWTCIMNAVEWNKKEELVAEQALKHLKQYAPLLAVFSSQGQSELILLQKVQEYCYDNIHFMKAFQKIVVLFYKADVLSEEAILKWYKEAHVAKGKSVFLDQMKKFVEWLQNAEEESESEGEEN
B1: binds [3].
